Measured values published in patent publication US20260166168A1 (MEDILINK THERAPEUTICS SUZHOU, published 2026).

T1: human DLL1 on 293T-hDLL1 cells (human, UniProt O00548 18-723)
T1 construct: whole, on cells; also called 293T-DLL1; HEK293T-hDLL1
T1 sequence (looked up): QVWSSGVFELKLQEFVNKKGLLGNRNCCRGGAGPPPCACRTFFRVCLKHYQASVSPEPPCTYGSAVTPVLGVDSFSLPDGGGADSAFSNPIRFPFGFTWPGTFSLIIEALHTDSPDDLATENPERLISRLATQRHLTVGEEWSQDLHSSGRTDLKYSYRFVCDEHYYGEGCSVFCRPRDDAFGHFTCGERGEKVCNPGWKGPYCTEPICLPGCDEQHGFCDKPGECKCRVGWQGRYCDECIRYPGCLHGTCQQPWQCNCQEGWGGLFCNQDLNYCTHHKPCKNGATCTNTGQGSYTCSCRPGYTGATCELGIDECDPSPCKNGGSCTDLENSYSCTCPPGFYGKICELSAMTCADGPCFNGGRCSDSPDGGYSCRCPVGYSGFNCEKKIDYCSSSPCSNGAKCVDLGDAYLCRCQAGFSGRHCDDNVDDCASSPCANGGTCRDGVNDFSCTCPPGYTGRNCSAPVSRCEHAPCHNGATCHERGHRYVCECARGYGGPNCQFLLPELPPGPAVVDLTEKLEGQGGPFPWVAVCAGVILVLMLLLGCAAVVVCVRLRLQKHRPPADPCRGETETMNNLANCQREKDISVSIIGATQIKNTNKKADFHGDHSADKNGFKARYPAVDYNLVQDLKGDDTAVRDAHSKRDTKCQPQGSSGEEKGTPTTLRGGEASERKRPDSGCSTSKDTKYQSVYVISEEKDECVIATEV

T2: recombinant extracellular domain protein of cynomolgus monkey DLL3 (cyno.DLL3-ECD-His) (cynomolgus monkey, UniProt A0A2K5WSR1 27-490)
T2 construct: extracellular domain; Commercial protein; not shown: His tag
T2 sequence: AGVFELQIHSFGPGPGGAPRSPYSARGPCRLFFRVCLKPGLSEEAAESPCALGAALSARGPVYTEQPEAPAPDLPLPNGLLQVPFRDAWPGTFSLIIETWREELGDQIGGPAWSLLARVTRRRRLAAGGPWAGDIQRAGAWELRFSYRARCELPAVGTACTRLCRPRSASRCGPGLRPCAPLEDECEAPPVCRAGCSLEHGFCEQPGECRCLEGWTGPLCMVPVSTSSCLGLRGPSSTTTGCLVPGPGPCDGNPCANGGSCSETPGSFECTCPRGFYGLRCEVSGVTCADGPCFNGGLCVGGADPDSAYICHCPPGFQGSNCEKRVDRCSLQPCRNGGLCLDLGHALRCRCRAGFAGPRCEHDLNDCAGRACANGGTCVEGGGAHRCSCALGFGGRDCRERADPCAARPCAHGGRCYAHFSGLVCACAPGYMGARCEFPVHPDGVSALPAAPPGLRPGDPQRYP

T3: recombinant extracellular domain protein of human DLL3 (h.DLL3-ECD-His) (human, UniProt Q9NYJ7 27-492)
T3 construct: extracellular domain; Commercial protein; also called human DLL3 antigen; not shown: His tag
T3 sequence (looked up): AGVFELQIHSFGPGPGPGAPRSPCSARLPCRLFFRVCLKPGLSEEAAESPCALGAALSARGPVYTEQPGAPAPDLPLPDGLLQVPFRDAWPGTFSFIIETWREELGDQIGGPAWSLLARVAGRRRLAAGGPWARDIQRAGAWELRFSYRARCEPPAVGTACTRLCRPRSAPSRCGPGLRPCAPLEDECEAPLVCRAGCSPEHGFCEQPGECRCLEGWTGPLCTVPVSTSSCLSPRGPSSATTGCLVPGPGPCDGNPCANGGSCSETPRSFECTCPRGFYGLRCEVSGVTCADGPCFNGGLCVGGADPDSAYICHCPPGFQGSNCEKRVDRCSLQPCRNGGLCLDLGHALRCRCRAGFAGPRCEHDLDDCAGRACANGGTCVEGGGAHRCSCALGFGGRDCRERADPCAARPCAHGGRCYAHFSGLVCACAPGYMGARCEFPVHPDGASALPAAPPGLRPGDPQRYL

B1: 6F11C10-Hz1 antibody (antibody, human IgG1, kappa, V domains shown)
VH: EVQLVQSGAEVKKPGASVKVSCKASGFTFTDYYMHWVRQAPGQSLEWMGLVYPYNGDISYAQKFQGRVTLTVDTSISTAYMELSRLRSDDTAVYYCARQGNYVNNAIDYWGQGTLVTVSS
VL: DIQMTQSPSSLSASVGDRVTITCKASQNVGNIIAWYQQKPGKSPKALIYLASYRYSGVPSRFSGSGSGTDFTLTISSLQPEDVATYFCQQYSDSPYTFGQGTKVEIKR
notes: Humanized IgG1/kappa
B2: 55C11E4-Hz1 (antibody, human IgG1, kappa, V domains shown)
VH: EVQLVQSGAEVKKPGASVKVSCKASGYTFTDYYMNWVRQAPGQRLEWMGVINPYNGGTNYSQKFQGRVTLTVDKSASTAYMELSSLRSEDTAVYYCARDSNYVGLLDYWGQGTLVTVSS
VL: DIVLTQSPATLSLSPGERATLSCRASQSISNNLHWYQQKPGQAPRLLIKYASQSISGIPARFSGSGSGPDFTLTISSLEPEDFAVYFCQQSNSWPYTFGQGTKVEIKR
notes: Humanized IgG1/kappa
B3: DL301 (antibody, V domains shown)
VH: QVQLQQSGADLVRPGTSVKVSCKASGYAFTNYLIEWIKQRPGQGLEWIGVMNPGSGGTHYSEKFRGKATLTADKSSSTAYMQLISLTSDDSAVYFCARSDYDYVTYAMDYWGQGTSVTVSS
VL: DIKMTQSPSSMYASLGERVTITCKASQDINSYLIWFQQKPGKSPKTLIYRTNRLVDGVPSRFSGSGSGQDYSLTISSLEYGDMGIYYCLQYDEFPFTFGSGTKLEIK
B4: DL306 (antibody, V domains shown)
VH: EVQLQQSGPELVKPGASVKMSCRASGYTFTDYYMKWVKQSHGKSLEWIGDINPNNGDTFYNQKFKGKATLTIDKSSSTAYMQLNSLTSDDSAVYYCARDGNYAYFDYWGQGTTLTVSS
VL: DIVLTQSPASLAVSLGQRATISCRASKSVSTSGYSYMHWYQQKPGQPPKLLIFLASNLESGVPARFSGSGSGTDFTLNIHPVEEEDAATYYCQHSRHLPWTFGGGTKLEIK
B5: DL309 (antibody, V domains shown)
VH: QVQLQQSGGDLMKPGASVKISCKAAGYTFSNYYIEWVKQRPGHGLEWIGEILPGSGSTTYNEKFKGKASFTADTSSNTAYMQLSSLTSEDSAVYYCARWGAREPGFPYWGQGTLVTVSA
VL: DIVMTQSQKFMSTSVGDRVSVTCKASQNVGTNVAWYQQKPGQSPKALIYSASYRYSGVPDRFTGSGSGTDFTLTISNVQSEDLAEYFCQQYNNYPLTFGAGTKLELK
B6: DL312 (antibody, V domains shown)
VH: EVKLVESGGGLVQPGGSLSLSCAASGFTFTDYYMNWVRQPPGKALEWLALIRNKANGYTTEYNASVKGRFTISRDNSQNILYLQMNALRAEDSATYYCARDSDGYYEYYFDYWGQGTTLTVSS
VL: DIQMTQSPSSLSASLGERVSLTCRASQEISDYLSWLQQKPDGTIKRLIFAASTLDSGVPKRFSGSRSGSDFSLSISSLESEDFADYYCLQYASYPYTFGSGTKLEIK
B7: 10F2F3-Hz antibody (antibody, human IgG1, kappa, V domains shown)
VH: QVQLVESGAEVKKPGSSVKVSCKASGYAFSSHWVNWVRQAPGQGLEWMGQIYPGNGDTNYAQKFQGRVTLTADKSTSTAYMELSSLTSEDTAVYFCARWFAYWGQGTLVTVSS
VL: DIQMTQSPSSLSASVGDRVTITCKSSQSLLDGGNQKNYLAWYQQKPGKPPKLLVYFASIRESGVPSRFSGSGSGTDFTLTISSLQPEDFATYYCQQHYNTPWTFGQGTKVEIKR
notes: Humanized
B8: 59B10D3-Hz antibody (antibody, human IgG1, kappa, V domains shown)
VH: EVQLVESGGGLVQPGGSLRLSCAASGFTFSDAWMDWVRQAPGKGLEWVAEIRNKANNHATYYVDSVKGRFTISRDDAKNSVYLQMNSLRAEDTAVYYCTRNNYGSTWTYYAMDYWGQGTLVTVSS
VL: DIQMTQSPSSLSASVGDRVTITCRASQDISNYLNWYQQKPGKAVKLLIYYTSRLHSGVPSRFSGSGSGTDYTLTISSLQPEDFATYYCQQGYTLPLTFGQGTKVEIKR
notes: Humanized; also called 59B10D3-hz1
B9: 87F7F10-Hz (antibody, human IgG1, kappa, V domains shown)
VH: QVQLQESGPGLVKPSETLSLTCTVSGYSITSDFYWNWIRQPPGKGLEWIGYITYDGSTNYNPSLKSRVTISRDTSKNQFSLKLSSVTAADTAVYYCVYGDFNRHAMDYWGQGTLVTVSS
VL: DIVMTQSPDSLAVSLGERATINCRSSQSLFNSRTRKNYLAWYQQKPGQPPKVLIYWASTRESGVPDRFSGSGSGTDFTLTISSLQAEDVAVYYCEQSFYLFTFGQGTKVEIKR
notes: Humanized; also called 87F7F10-hz1

Tests used:
[1] = molecular target: T4, human DLL4 on 293T-hDLL4 cells (human, UniProt Q9NR61 27-685); assay: flow cytometry on HEK293T-hDLL4 cells
T4 construct: whole, on cells; also called 293T-DLL4; HEK293T-hDLL4

[2] = molecular target: T1, human DLL1 on 293T-hDLL1 cells; assay: flow cytometry on HEK293T-hDLL1 cells
[3] = molecular target: T2, recombinant extracellular domain …; assay: BLI (ForteBio), antibody on ProA sensor, cynoDLL3-ECD-His in solution
[4] = molecular target: T3, recombinant extracellular domain …; assay: BLI (ForteBio), antibody on ProA sensor, hDLL3-ECD-His in solution
[5] = molecular target: T2, recombinant extracellular domain …; assay: ELISA, coated cyno.DLL3-ECD-his 0.2 µg/mL, antibody titrated
[6] = molecular target: T3, recombinant extracellular domain …; assay: ELISA, coated h.DLL3-ECD-his 0.2 µg/mL, antibody titrated
[7] = molecular target: T3, recombinant extracellular domain …; assay: ELISA, titrated antibody on plate-coated human DLL3, OD450nm

T4 sequence (Q9NR61 27-685): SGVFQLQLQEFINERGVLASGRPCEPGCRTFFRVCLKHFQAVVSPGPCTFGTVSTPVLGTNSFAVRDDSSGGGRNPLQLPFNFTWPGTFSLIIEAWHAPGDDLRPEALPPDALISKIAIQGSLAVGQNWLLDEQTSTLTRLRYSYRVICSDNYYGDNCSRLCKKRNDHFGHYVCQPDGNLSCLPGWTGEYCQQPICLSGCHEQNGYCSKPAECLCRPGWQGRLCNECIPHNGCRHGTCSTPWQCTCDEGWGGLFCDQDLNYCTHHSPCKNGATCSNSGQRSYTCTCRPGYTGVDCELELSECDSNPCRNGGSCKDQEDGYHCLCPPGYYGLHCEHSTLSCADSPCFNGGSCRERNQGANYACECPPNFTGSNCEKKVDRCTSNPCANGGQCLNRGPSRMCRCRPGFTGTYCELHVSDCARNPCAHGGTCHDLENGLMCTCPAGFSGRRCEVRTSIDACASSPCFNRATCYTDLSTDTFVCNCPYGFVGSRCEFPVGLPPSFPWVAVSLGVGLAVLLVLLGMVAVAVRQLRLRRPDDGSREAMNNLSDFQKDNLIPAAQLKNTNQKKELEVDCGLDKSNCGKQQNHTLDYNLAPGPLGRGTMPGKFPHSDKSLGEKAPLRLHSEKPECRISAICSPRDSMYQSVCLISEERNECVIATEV

| Binder | binding result [1] | binding result [2] | Kd [3] | koff [3] | kon [3] | Kd [4] | koff [4] | kon [4] | EC50 [5] | EC50 [6] | EC50 (read off the curve) [7] |
| --- | --- | --- | --- | --- | --- | --- | --- | --- | --- | --- | --- |
| B1 | no binding (tested: 20 µg/mL) | no binding (tested: 20 µg/mL) | 0.873 nM | 0.000328 s⁻¹ | 375000 M⁻¹ s⁻¹ | 0.243 nM | 4.27e-05 s⁻¹ | 175000 M⁻¹ s⁻¹ | 5.4 ng/mL | 4.7 ng/mL |  |
| B2 | no binding (tested: 20 µg/mL) | no binding (tested: 20 µg/mL) | 2.37 nM | 0.000479 s⁻¹ | 202000 M⁻¹ s⁻¹ | 5.26 nM | 0.000652 s⁻¹ | 124000 M⁻¹ s⁻¹ | 4.1 ng/mL | 3.9 ng/mL |  |
| B3 |  |  |  |  |  |  |  |  |  |  | ~4 ng/mL |
| B4 |  |  |  |  |  |  |  |  |  |  | ~5 ng/mL |
| B5 |  |  |  |  |  |  |  |  |  |  | ~6 ng/mL |
| B6 |  |  |  |  |  |  |  |  |  |  | ~5 ng/mL |
| B7 | no binding (tested: 20 µg/mL) | no binding (tested: 20 µg/mL) | 1.28 nM | 0.000122 s⁻¹ | 95100 M⁻¹ s⁻¹ | 6.07 nM | 0.00045 s⁻¹ | 74200 M⁻¹ s⁻¹ | 3.5 ng/mL | 3.4 ng/mL |  |
| B8 | no binding (tested: 20 µg/mL) | no binding (tested: 20 µg/mL) | 9.08 nM | 0.000908 s⁻¹ | 100000 M⁻¹ s⁻¹ | 14 nM | 0.0017 s⁻¹ | 122000 M⁻¹ s⁻¹ | 6.3 ng/mL | 5.2 ng/mL |  |
| B9 | no binding (tested: 20 µg/mL) | no binding (tested: 20 µg/mL) | 2.41 nM | 8.84e-05 s⁻¹ | 36700 M⁻¹ s⁻¹ | 8.57 nM | 0.000218 s⁻¹ | 25400 M⁻¹ s⁻¹ | 3.3 ng/mL | 3.8 ng/mL |  |
